# Experimental data published in US20260132182A1 (published 2026).
# Starred links: 1 amine or outer side, 2 acyl side, 3 side chain; linkers in the order of their positions; H or OH if unused. Non-standard residues stand in square brackets, D forms with d. Groups on a side chain read outwards from the residue. *: point of attachment. Undecanoyl(11-OPh(4-COOH)) = O=C(O)c1ccc(OCCCCCCCCCCC(=O)*)cc1; Decanoyl(10-(4-HOOC-PhO)) = O=C(O)c1ccc(OCCCCCCCCCC(=O)*)cc1; Decanoyl(10-O(3-COOH-Ph)) = O=C(O)c1cccc(OCCCCCCCCCC(=O)*)c1; C20 diacid = O=C(O)CCCCCCCCCCCCCCCCCCC(=O)*; C18 diacid = O=C(O)CCCCCCCCCCCCCCCCC(=O)*; C16 diacid = O=C(O)CCCCCCCCCCCCCCC(=O)*; γGlu = O=C(O)[C@H](CCC(=O)[*:2])N[*:1]; εLys = N[C@@H](CCCCN[*:1])C(=O)[*:2]; Trx = NC[C@H]1CC[C@H](C(=O)O)CC1; AEEA = NCCOCCOCC(=O)O; Aib = CC(C)(N)C(=O)O
# T1: human amylin-3 (a) receptor (human, UniProt P30988 25-474; O60896 24-148)
# T1 sequence (looked up) 1: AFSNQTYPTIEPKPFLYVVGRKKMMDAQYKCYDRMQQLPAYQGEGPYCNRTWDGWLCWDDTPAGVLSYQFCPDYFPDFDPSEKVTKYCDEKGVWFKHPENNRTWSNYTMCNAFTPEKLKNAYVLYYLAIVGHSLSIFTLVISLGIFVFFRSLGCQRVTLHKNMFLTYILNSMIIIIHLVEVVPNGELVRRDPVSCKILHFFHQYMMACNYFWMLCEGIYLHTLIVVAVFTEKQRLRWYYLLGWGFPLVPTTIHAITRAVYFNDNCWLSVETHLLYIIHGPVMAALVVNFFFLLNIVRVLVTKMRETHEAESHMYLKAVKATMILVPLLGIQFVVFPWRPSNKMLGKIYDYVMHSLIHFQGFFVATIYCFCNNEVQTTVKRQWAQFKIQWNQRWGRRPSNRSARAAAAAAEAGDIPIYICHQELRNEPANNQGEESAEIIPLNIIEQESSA
# T1 sequence (looked up) 2: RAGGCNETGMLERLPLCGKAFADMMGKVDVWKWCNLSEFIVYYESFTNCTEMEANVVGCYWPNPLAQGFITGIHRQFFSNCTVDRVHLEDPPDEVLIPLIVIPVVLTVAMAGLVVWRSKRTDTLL
# What was measured:
# human GLP-1 receptor = human GLP-1 receptor (human, UniProt P43220 24-463); test: cell-based or functional assay
# [1] = target: T1, human amylin-3 (a) receptor; test: cell-based or functional assay
Binder,Human GLP-1R potency [EC50 (pM)] (human GLP-1 receptor) [pM],Human AmyR3 potency [EC50 (pM)] [1] [pM]
Compound 0267 (peptide) peptide: HWEGTFTSDVSSYLEEQAAREFIEWLVRGK([AEEA-AEEA-γGlu-Trx-C20 diacid])GEASELSTAALGRLSAELHELATLPRTETGSGSP-NH2,28.5,45.3
Compound 0202 (peptide) peptide: H[Aib]EGTFTSDVSSYLEGQAAK([AEEA-AEEA-γGlu-C20 diacid])EFIAWLVRGRGQEPGQAPEASELSTAALGRLSAELHELATLPRTETGSGSP-NH2,10.5,28.4
Compound 0233 (peptide) peptide: HWEGTFTSDVSSYLEEQAAREFIEWLVRGK([AEEA-AEEA-γGlu-Decanoyl(10-(4-HOOC-PhO))])GEGGGGGASELSTAALGRLSK([AEEA-AEEA-γGlu-Decanoyl(10-(4-HOOC-PhO))])ELHELATLPRTETGSGSP-NH2,46.4,182
Compound 0179 (peptide) peptide: H[Aib]EGTFTSDVSSYLEEQAAREFIEWLVRGRK([AEEA-AEEA-γGlu-Trx-C20 diacid])EAEAEASELSTAALGRLSAELHELATLPRTETGSGSP-NH2,8.8,35.9
Compound 0235 (peptide) peptide: H[Aib]EGTFTSDVSSYLEEQAAREFIAWLVRGK([AEEA-AEEA-γGlu-Decanoyl(10-O(3-COOH-Ph))])K([AEEA-AEEA-γGlu-Decanoyl(10-O(3-COOH-Ph))])GGGGASELSTAALGRLSAELHELATLPRTETGSGSP-NH2,10.4,24
Compound 0232 (peptide) peptide: HWEGTFTSDVSSYLEEQAARK([AEEA-AEEA-γGlu-Decanoyl(10-(4-HOOC-PhO))])FIEWLVRGRGEGGGGGASELSTAALGRLSAELHELK([AEEA-AEEA-γGlu-Decanoyl(10-(4-HOOC-PhO))])TLPRTETGSGSP-NH2,6.4,74.2
Compound 0270 (peptide) peptide: HWEGTFTSDVSSYLEEK([AEEA-AEEA-γGlu-Trx-C20 diacid])AAREFIEWLVRGRGEASELSTAALGRLSAELHELATLPRTETGSGSP-NH2,6.3,8.6
Compound 0191 (peptide) peptide: H[Aib]EGTFTSDVSSYLEGQAAREFIAWLVRGRGQEPK([AEEA-AEEA-γGlu-C18 diacid])GQAPASRLSTEALGRLSAELHELATLPRTETGSGSP-NH2,5.9,54.8
Compound 0255 (peptide) peptide: HWEGTFTSDVSSYLEEQAARK([AEEA-AEEA-γGlu-Undecanoyl(11-OPh(4-COOH))])FIEWLVRGRGEGGGGGASELSTAALGRLSK([AEEA-AEEA-γGlu-Undecanoyl(11-OPh(4-COOH))])ELHELATLPRTETGSGSP-NH2,2.5,28.6
Compound 0040 (peptide) peptide: H[Aib]EGTFTSDVSSYLEGQAAK([AEEA-AEEA-γGlu-C18 diacid])EFIAWLVRGRGGGGEASELSTAALGRLSAELHELATLPRTETGSGSP-NH2,20.7,7.7
Compound 0263 (peptide) peptide: H[Aib]EGTFTSDVSSYLEEQAAREFIAWLVRGRK([AEEA-AEEA-γGlu-Trx-C20 diacid])EASELSTAALGRLSAELHELATLPRTETGSGSP-NH2,13.8,25.2
Compound 0269 (peptide) peptide: HWEGTFTSDVSSYLEEQAAREFIEWLVRGRK([AEEA-AEEA-γGlu-Trx-C20 diacid])GGGGEASELSTAALGRLSAELHELATLPRTETGSGSP-NH2,7.7,7.5
Compound 0266 (peptide) peptide: H[Aib]EGTFTSDK([AEEA-AEEA-γGlu-Trx-C20 diacid])SSYLEEQAAREFIAWLVRGRGGGGEASELSTAALGRLSAELHELATLPRTETGSGSP-NH2,6.3,8.5
Compound 0261 (peptide) peptide: H[Aib]EGTFTSDK([AEEA-AEEA-γGlu-C16 diacid])SSYLEEQAAREFIAWLVRGRGGGGGEASELSTAALGRLSAELHELATLK([AEEA-AEEA-γGlu-C16 diacid])RTETGSGSP-NH2,17.4,23.9
Compound 0254 (peptide) peptide: HWEGTFTSDVSSYLEEQAARK([AEEA-AEEA-γGlu-Trx-C20 diacid])FIEWLVRGRGEGGGGGASELSTAALGRLSAELHELATLPRTETGSGSP-NH2,8.9,7.7
Compound 0268 (peptide) peptide: HWEGTFTSDVSSYLEEQAAREFIAWLVRGRK([AEEA-AEEA-γGlu-Trx-C20 diacid])GGGGEASELSTAALGRLSAELHELATLPRTETGSGSP-NH2,26.4,14.4
Compound 0231 (peptide) peptide: HWEGTFTSDVSSYLEEQAARK([AEEA-AEEA-γGlu-Decanoyl(10-(4-HOOC-PhO))])FIEWLVRGRGEGGGGGASELSTAALGRLSK([AEEA-AEEA-γGlu-Decanoyl(10-(4-HOOC-PhO))])ELHELATLPRTETGSGSP-NH2,5.6,68
Compound 0160 (peptide) peptide: H[Aib]EGTFTSDVSSYLEEQAARK([γGlu-C18 diacid])FIAWLVRGRGGGGGGGGK([γGlu-C18 diacid])EASELSTAALGRLSAELHELATLPRTETGSGSP-NH2,11.9,27.3
Compound 0259 (peptide) peptide: H[Aib]EGTFTSDK([AEEA-AEEA-γGlu-C16 diacid])SSYLEEQAAREFIAWLVRGRGGGGGEASELSTAALGRLSAELHK([AEEA-AEEA-γGlu-C16 diacid])LATLPRTETGSGSP-NH2,15.8,12
Compound 0260 (peptide) peptide: H[Aib]EGTFTSDK([AEEA-AEEA-γGlu-C16 diacid])SSYLEEQAAREFIAWLVRGRGGGGGEASELSTAALGRLSAELHELK([AEEA-AEEA-γGlu-C16 diacid])TLPRTETGSGSP-NH2,11.9,41.8
Compound 0271 (peptide) peptide: HWEGTFTSDVSSYLEEK([AEEA-AEEA-γGlu-C18 diacid])AAREFIEWLVRGRGEASELSTAALGRLSAELHELATLPRTETGSGSP-NH2,4.6,15.2
Compound 0265 (peptide) peptide: H[Aib]EGTFTSDVSSYLEEK([AEEA-AEEA-γGlu-Trx-C20 diacid])AAREFIAWLVRGRGGGGEASELSTAALGRLSAELHELATLPRTETGSGSP-NH2,6,8.1
Compound 0042 (peptide) peptide: H[Aib]EGTFTSDVSSYLEGQAAKEFIAWLVRGRK([AEEA-AEEA-γGlu-C18 diacid])GGEASELSTAALGRLSAELHELATLPRTETGSGSP-NH2,16.2,10.8
Compound 0264 (peptide) peptide: H[Aib]EGTFTSDVSSYLEEQAAREFIAWLVRGK([AEEA-AEEA-γGlu-Trx-C20 diacid])GGGGEASELSTAALGRLSAELHELATLPRTETGSGSP-NH2,6.5,11.7
Compound 0234 (peptide) peptide: HWEGTFTSDVSSYLEEQAAREFIEWLVRGK([AEEA-AEEA-γGlu-Decanoyl(10-(4-HOOC-PhO))])GEGGGGGASELSTAALGRLSAELHELK([AEEA-AEEA-γGlu-Decanoyl(10-(4-HOOC-PhO))])TLPRTETGSGSP-NH2,38.9,38.4
Compound 0180 (peptide) peptide: H[Aib]EGTFTSDVSSYLEEQAAREFIEWLVRGRK([εLys-AEEA-AEEA-γGlu-Trx-C20 diacid])EAEAEASELSTAALGRLSAELHELATLPRTETGSGSP-NH2,6.4,37
Compound 0159 (peptide) peptide: H[Aib]EGTFTSDVSSYLEGQAAK([εLys-AEEA-AEEA-γGlu-C18 diacid])EFIAWLVRGRGGGGGGGGGEASELSTAALGRLSAELHELATLPRTETGSGSP-NH2,30.3,19.3
